Among the data in publication PMC3196243 are Kd values, retold here.

In test [1] the target is S100B (UniProt P04271). The test is described as follows: NMR titration.
For test [2], the target named is S100B (UniProt P04271). The test can be described thus: NMR titration. This is another data set of the same source.
The target of test [3] is p53 362-393 (Homo sapiens) (UniProt P04637). Particulars: cited from earlier work.
Test [4] has as its target RAGE 129-336 (Homo sapiens) (UniProt Q15109). Particulars: cited from earlier work.
In test [5] the target is Myelin-associated glycoprotein (Homo sapiens) (UniProt P20916). Particulars: cited from earlier work.
In another test the target is SIP (Homo sapiens) (UniProt Q9HB71). Particulars: cited from earlier work.
Test [6] has as its target TRTK-12 TRTK-12 (Homo sapiens) (UniProt P52907). The note with it: cited from earlier work.

Where two headings read alike, the source gives them in different places.

S100B (from UniProt P04271), sequence (P04271 2-92): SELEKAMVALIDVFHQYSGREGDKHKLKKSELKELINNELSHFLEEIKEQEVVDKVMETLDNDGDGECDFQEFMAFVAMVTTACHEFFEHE
S100B (UniProt P04271), sequence (P04271 2-92): as above
S100A12, sequence (P80511 2-92): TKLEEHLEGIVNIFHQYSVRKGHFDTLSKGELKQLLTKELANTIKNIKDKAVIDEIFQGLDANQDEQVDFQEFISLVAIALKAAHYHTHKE
RAGE 129-336 (Homo sapiens), sequence (Q15109 129-336): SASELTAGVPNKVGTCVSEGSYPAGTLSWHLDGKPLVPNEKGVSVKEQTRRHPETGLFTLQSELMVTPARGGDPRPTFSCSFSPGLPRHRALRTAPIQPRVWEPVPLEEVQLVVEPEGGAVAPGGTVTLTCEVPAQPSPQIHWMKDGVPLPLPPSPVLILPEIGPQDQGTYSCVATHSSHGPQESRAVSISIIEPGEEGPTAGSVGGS
p53 362-393 (Homo sapiens), sequence (P04637 362-393): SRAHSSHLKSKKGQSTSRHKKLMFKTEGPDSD
S100A2, sequence (P29034 whole entry): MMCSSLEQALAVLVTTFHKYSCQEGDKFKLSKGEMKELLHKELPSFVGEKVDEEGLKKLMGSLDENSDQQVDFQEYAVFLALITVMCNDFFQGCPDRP
Myelin-associated glycoprotein (Homo sapiens), sequence (P20916 20-626): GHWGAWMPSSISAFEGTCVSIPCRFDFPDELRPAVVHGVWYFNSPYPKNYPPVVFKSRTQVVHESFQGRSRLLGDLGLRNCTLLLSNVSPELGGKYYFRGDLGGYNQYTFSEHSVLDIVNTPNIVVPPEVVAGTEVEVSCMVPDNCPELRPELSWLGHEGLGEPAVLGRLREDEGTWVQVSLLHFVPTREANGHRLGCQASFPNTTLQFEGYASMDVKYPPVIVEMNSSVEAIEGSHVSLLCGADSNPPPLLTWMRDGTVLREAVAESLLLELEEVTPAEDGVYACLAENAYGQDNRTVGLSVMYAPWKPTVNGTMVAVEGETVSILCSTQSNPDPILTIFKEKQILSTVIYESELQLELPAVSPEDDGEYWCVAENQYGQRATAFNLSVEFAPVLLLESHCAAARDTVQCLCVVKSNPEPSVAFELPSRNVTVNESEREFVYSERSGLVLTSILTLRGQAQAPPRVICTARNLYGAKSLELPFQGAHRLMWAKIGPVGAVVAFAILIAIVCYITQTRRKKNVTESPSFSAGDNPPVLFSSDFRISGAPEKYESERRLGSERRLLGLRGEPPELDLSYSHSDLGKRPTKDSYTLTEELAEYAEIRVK
SIP (Homo sapiens), sequence (Q9HB71 2-228): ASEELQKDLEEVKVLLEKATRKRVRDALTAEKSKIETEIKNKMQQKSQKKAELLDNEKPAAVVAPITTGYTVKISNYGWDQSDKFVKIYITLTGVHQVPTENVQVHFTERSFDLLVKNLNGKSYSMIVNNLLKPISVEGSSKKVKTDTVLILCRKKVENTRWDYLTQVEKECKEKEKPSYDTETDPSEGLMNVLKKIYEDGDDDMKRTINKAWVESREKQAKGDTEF

For “IC3-C30 (from UniProt P61169-2 316-345) (peptide)”, the Kd with S100B [1] stood at 98 µM.
With “IC3-M28 (from UniProt P61169-2 288-315) (peptide)”, the Kd was 148 µM with S100B [2] and 149 µM in the test with S100B [1].
With S100A2 (from UniProt P29034), the Kd in test [3] was 106 µM.
Turning to S100A12 (from UniProt P80511), the equilibrium dissociation constant (Kd) in test [4] was 140 µM.
Turning to S100B (from UniProt P04271), the Kd is 7 µM in test [5], 5 µM with SIP (Homo sapiens) and 0.3 µM in test [6].

For orientation: Kd means the free concentration of one partner at which half of the binding sites on the other are occupied at equilibrium, for simple one-to-one binding.
